{"source": "patent US20180327500A1", "about": "(SYMPHOGEN A S, published 2018)", "binders": {"B1": {"name": "humanized antibody 9006 (antibody, human IgG1, kappa, V domains shown)", "VH": "QVQLVQSGSELKKPGASVKVSCKASGYTFTNFRMNWVKQAPGQGLKWMGWINTYTGEPTYVDDLKGRFVFSLDTSVSTAYLQISSLKAEDTAVYYCARKGIARAMDYWGQGTTVTVSS", "VL": "DIVMTQSPDSLAVSLGERATINCKSSQSLLDSGNQKNYLAWYQQKPGQPPKLLIFGASTRESGVPDRFSGSGSGTDFTLTISSLQAEDVAVYYCQNDHSYPYTFGQGTKLEIKR", "notes": "also called Hu9006; hu9006"}}, "key": {"[1]": {"molecular_target": "T1, His tagged human MET ECD (Sinobiological) (human, UniProt P08581 25-932)", "T1 construct": "Bought monovalent antigen; also called human MET antigen; not shown: His tag", "assay": "SPR (Bio-Rad XPR-36); antibody captured on anti-human IgG Fc surface, MET ECD 25 to 1.56 nM, 1:1 Langmuir fit"}, "Mouse blade 3": {"molecular_target": "T2, Mouse blade 3", "T2 construct": "human/mouse chimera on transfected HEK293 cells; also called Mouse blade 3-IPT4", "T2 MET ECD-SV5-GPI fusion": "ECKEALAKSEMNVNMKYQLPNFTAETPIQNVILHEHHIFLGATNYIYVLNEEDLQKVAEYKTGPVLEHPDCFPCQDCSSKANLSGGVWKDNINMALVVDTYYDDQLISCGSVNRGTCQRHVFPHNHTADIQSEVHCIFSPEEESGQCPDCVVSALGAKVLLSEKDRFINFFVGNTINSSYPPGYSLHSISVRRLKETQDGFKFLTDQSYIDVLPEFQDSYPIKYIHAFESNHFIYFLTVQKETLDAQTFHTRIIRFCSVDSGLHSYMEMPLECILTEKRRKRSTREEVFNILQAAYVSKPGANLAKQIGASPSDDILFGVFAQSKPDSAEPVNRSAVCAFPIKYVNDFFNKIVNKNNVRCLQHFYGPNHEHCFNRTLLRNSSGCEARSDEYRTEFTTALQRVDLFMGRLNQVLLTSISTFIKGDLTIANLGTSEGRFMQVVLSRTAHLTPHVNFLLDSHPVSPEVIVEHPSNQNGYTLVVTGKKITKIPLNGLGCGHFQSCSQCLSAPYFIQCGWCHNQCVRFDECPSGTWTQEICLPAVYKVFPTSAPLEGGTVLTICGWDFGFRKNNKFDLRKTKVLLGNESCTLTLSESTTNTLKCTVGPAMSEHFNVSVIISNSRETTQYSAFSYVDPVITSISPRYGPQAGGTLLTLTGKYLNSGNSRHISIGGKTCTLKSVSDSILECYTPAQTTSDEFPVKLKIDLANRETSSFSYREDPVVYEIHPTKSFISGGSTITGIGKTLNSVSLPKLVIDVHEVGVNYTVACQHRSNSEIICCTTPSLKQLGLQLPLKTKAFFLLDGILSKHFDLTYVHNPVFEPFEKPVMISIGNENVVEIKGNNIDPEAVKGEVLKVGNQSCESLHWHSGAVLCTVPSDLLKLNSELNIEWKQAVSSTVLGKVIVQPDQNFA", "assay": "flow cytometry on transfected HEK293 cells;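 also: antibodies applied at 50 µg/ml, binding called specific when fluorescence exceeds the mean signal on a negative control chicken or mouse MET construct plus four SD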", "protocol": "Cut-off values defined as the average fluorescence signal of all antibodies tested at 50 μg/ml to the negative control chicken or mouse MET construct+four standard deviations were employed to discriminate background binding from specific binding for the domain exchange or blade exchange constructs."}}}
{"binder": "B1", "values": [{"measurement": "Kd", "setting": "[1]", "value": 0.055, "unit": "nM"}, {"measurement": "koff", "setting": "[1]", "value": "1.1e-05", "unit": "s⁻¹"}, {"measurement": "kon", "setting": "[1]", "value": 190000, "unit": "M⁻¹ s⁻¹"}, {"measurement": "binding result", "setting": "Mouse blade 3", "value": "no binding (tested: 50 µg/ml)"}]}
